{"source": "patent US20220260563A1", "molecules": {"B1": {"name": "protein M (SEQ ID NO:2), His-tag removed by thrombin cleavage (protein)", "chain": "HHHHHHSSGLVPRGSHMTNLVNQSGYALVASGRSGNLGFKLFSTQSPSAEVKLKSLSLNDGSYQSEIDLSGGANFREKFRNFANELSEAITNSPKGLDRPVPKTEISGLIKTGDNFITPSFKAGYYDHVASDGSLLSYYQSTEYFNNRVLMPILQTTNGTLMANNRGYDDVFRQVPSFSGWSNTKATTVSTSNNLTYDKWTYFAAKGASPLYDSYPNHFFEDVKTLAIDAKDISALKTTIDSEKPTYLIIRGLSGNGSQLNELQLPESVKKVSLYGDYTGVNVAKQIFANVVELEFYSTSKANSEGFNPLVLGSKTNVIYDLFASKPFTHIDLTQVTLQNSDNSAIDANKLKQAVGDIYNYRRFERQFQGYFAGGYIDKYLVKNVNTNKDSDDDLVYRSLKELNLHLEEAYREGDNTYYRVNENYYPGASIYENERASRDSEFQNEILKRAEQNGVTFDENIKRITASGKYSVQFQKLENDTDSSLERMTKAVEGLVTVIGEEKFETVDITGVSSDTNEVKSLAKELKTNALGVKLKL"}, "B2": {"name": "Modified M. genitalium protein M MG29 (protein, not shown: small tags and cut ends)", "chain": "SLSLNDGSYQSEIDLSGGANFREKFRNFANELSEAITNSPKGLDRPVPKTEISGLIKTGDNFITPSFKAGYYDHVAEDGSLLSYYQSTEYFNNRVLMPILQTTNGTLMANNRGYDDVFRQVPRFPGWSNTKATTVSTSNNLTYDKWTYFAAKGSPLYDQYPNHTFEDVKTLAIDAKDISALKTTIDSEKPTYLIIRGLSGNGSQLNELQLPESVKKVSLYGDYTGVNVAKQIFANVVELEFYSTSKANSFGFNPLVLGSKTNVINDLFVSKPFTHIDLTQVTLQNSDNSAIDANKLKQAVGDIYNYRRFERQFQGYFAGGYIDKYLVKNVNTNKDSDDDLVYRSLKELNLHLEEAYREGDNTYYRVNENYYPGASIYENERASRDSEFQNEILKRAEQNGVTFDEN"}}, "assay_in_all_cases": "cell-based or functional assay", "key": {"[1]": {"molecular_target": "AAV2 capsid (AAV2-Luciferase vector virions) (AAV2) (UniProt P03135)", "sequence (P03135 whole entry, the tested form may be a part)": "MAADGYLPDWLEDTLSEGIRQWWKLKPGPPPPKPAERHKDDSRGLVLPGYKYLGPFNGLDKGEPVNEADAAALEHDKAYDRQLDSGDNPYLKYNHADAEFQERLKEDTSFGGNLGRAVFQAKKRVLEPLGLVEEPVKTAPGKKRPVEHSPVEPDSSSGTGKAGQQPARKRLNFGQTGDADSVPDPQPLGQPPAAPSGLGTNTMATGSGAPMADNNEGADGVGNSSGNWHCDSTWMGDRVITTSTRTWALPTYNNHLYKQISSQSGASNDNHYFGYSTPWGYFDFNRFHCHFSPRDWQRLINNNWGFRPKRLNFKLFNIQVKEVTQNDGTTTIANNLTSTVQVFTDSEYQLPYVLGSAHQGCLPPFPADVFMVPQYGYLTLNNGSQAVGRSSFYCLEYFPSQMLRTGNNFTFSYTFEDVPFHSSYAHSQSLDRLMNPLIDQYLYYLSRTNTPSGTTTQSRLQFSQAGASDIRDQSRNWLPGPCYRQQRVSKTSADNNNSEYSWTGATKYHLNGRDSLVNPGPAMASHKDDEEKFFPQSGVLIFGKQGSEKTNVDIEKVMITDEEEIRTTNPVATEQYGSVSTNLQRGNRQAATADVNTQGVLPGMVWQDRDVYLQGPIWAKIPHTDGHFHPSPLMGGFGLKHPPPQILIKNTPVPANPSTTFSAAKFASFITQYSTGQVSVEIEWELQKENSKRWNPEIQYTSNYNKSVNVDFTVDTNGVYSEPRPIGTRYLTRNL"}, "[2]": {"molecular_target": "human intravenous immunoglobulin gamma (IVIG), 10% Human IVIG (Gamunex) (human)"}, "[3]": {"molecular_target": "AAV2 capsid (AAV2-Luciferase vector virions) (AAV2) (UniProt P03135)", "remark": "listed apart in the source"}, "[4]": {"molecular_target": "human intravenous immunoglobulin gamma (IVIG), 10% Human IVIG (Gamunex) (human)", "remark": "listed apart in the source"}, "[5]": {"molecular_target": "AAV neutralizing antibodies in AAV8-GFP immunized C57BL6 mice (mouse)"}}, "data": [{"molecule": "human intravenous immunoglobulin gamma (IVIG), 10% Human IVIG (Gamunex) (antibody)", "values": [{"measurement": "percent of AAV2-Luciferase signal neutralized by 12.5 µg IVIG", "setting": "[1]", "result": 80, "unit": "%"}, {"measurement": "percent of AAV2 neutralized by 12.5 µg IVIG", "setting": "[1]", "result": 75, "unit": "%"}, {"measurement": "percent of AAV2 neutralized by 200 µg IVIG", "setting": "[1]", "result": 100, "unit": "%"}, {"measurement": "reduction in AAV signal by 12.5 µg IVIG without protein M", "setting": "[1]", "result": 68, "unit": "%"}]}, {"molecule": "Protein M without cleavage of His tag (from UniProt P47523 37-556)", "values": [{"measurement": "molar ratio of protein M to AAV2 particle at which enhancement begins to saturate (protein M molecules per AAV2 particle)", "setting": "[1]", "result": 700000}, {"measurement": "molar ratio of protein M to AAV2 particle below which enhancement of luciferase signal is abolished (protein M molecules per AAV2 particle)", "setting": "[1]", "result": "< 40000"}, {"measurement": "molar ratio of protein M to IVIG that protects AAV2 when protein M is pre-incubated with AAV2 (protein M molecules per IgG molecule)", "setting": "[2]", "result": "> 2"}, {"measurement": "protection of AAV2 from IVIG neutralization in 10% FBS, protein M to total IgG molar ratio (protein M molecules per IgG molecule)", "setting": "[2]", "result": 1}]}, {"molecule": "B1", "values": [{"measurement": "AAV2 luciferase signal relative to PBS control, 33 µg protein M incubated with AAV2 without IVIG (% of PBS control)", "setting": "[3]", "result": 216}, {"measurement": "AAV2 luciferase signal relative to PBS control, 75 µg protein M incubated with AAV2 without IVIG (% of PBS control)", "setting": "[3]", "result": 208}, {"measurement": "AAV2 luciferase signal, percent of no-IVIG control, at 8:1 molar ratio (33 µg protein M, 12.5 µg IVIG) (% of no-IVIG control)", "setting": "[4]", "result": 194}, {"measurement": "AAV2 luciferase signal, percent of no-IVIG control, at 20:1 molar ratio (75 µg protein M, 12.5 µg IVIG) (% of no-IVIG control)", "setting": "[4]", "result": 256}, {"measurement": "AAV2 luciferase signal, percent of no-IVIG control, at protein M:IgG molar ratio 0.5:1 (% of no-IVIG control)", "setting": "[4]", "result": 40}, {"measurement": "AAV2 luciferase signal, percent of no-IVIG control, at protein M:IgG molar ratio 1:1 (% of no-IVIG control)", "setting": "[4]", "result": 52}, {"measurement": "AAV2 luciferase signal, percent of no-IVIG control, at protein M:IgG molar ratios greater than 2:1 (% of no-IVIG control)", "setting": "[4]", "result": "108 to 193"}, {"measurement": "molar ratio of protein M to IgG sufficient to prevent AAV2 neutralization (protein M molecules per IgG molecule)", "setting": "[4]", "result": 2}]}, {"molecule": "B2", "values": [{"measurement": "luciferase signal of the saline leg against the protein M formulated leg, AAV8-Luciferase re-dosing in immunized mice", "setting": "[5]", "result": "> 98", "unit": "% less"}]}]}
